The assay concerns the target thioredoxin (TRX), endogenous in bovine aortic endothelial cells (BAEC) (bovine) (UniProt O97680). The assay can be described thus: cell-based or functional assay.
Sequence of UniProt O97680 (O97680 2-105 limits assumed): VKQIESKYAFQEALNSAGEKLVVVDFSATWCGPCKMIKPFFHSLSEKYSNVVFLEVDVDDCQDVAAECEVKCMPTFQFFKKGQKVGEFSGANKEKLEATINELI

On to “Thioredoxin interacting protein (TXNIP) over-expressed from pcDNA3.1-TXNIP in BAEC”, for which the TNF-mediated activation of JNK (phospho-specific immunoblot) in BAEC over-expressing TXNIP amounted to 33% and the TNF-mediated activation of p38 (phospho-specific immunoblot) in BAEC over-expressing TXNIP worked out at 23%.
